The data set can be described thus: amyloid nucleation score (Sup35N fusion, yeast selection) (log enrichment); library NNK3; higher = more nucleation; inactive = no reads after selection. Summed up: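 Three technical output replicates were used for random libraries. Psi-negative yeast expressing peptides of 20 random codons fused to Sup35N were induced with 100 μM copper sulfate for 24 hours and grown 7 days at 30°C on medium lacking adenine and uracil, and input and output plasmid inserts were Illumina-sequenced, excluding sequences with under 100 input reads. The nucleation score is the DiMSum log enrichment of output over input reads, centred on the mode score of non-aggregating sequences.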

± gives the uncertainty stated by the source.

As to FVHSLRVVIW, the amyloid nucleation score entry is “inactive”.
The result for YVNLHPMLATAAIYVNSSAG reads “inactive”; that for RRTMFPAMIIS, “inactive”.
For LLESTSF the value was “inactive”; for FGVSIVRHQVLLCGLSCISL, 1.85 ± 0.091; for FYNFSTCVTRGWYVFMRC, “inactive”.
The result for YWLIRDLWRGRGS reads “inactive”; that for LMYAVLGTQTVSLSAFKSR, -0.3 ± 1.1.
In the case of YFWEASGFHFIRLVTTASTQ, the amyloid nucleation score result was “inactive”.
For SERPDFMDYEEMLGYAVKWR the value was “inactive”.
As to SCAECDMRWHMGGCICFVLG, the amyloid nucleation score entry was “inactive”.
The result for DLVEVIYSVTSYYPNYLRAK reads “inactive”; that for VSEIW, “inactive”; that for SGLYMCRISFSPLIVMIVYG, 1.3 ± 0.096.
For the substance SYNFRDCYQCLRDKVDKICA, the amyloid nucleation score entry is “inactive”.
For VNYLYPS the value was “inactive”; for FMYDYLAHLPGDFVNNSCRR, “inactive”; for HTDIMIWFRSCYYFLSFFMY, “inactive”.
Substance IRALRKRDEDGSLLTGTLFC registered an amyloid nucleation score of -0.385 ± 1.1.
For IERLDNSIVNVMWILSGCKA the value was “inactive”; for QTRELRSQLLMPFSITDVRS, “inactive”; for LLCRE, “inactive”.
For PQPARLDQGGYISDMYCYVI the value was -0.362 ± 1.3.
In turn, MCRLDA gave an amyloid nucleation score of 2.38 ± 0.073.
The result for RNSKWWLYLKSARSCYLGWW reads “inactive”.
The result for LSVMLQ reads 0.988 ± 0.19; that for KFYAYSEDMVSQYI, “inactive”.
For NWRMVQNQVVWVLRLNTYHY the value was “inactive”; for QGIGGATVTFLRLFV, “inactive”.
For FYPRMYTISQMLDAGQDDAA, the amyloid nucleation score result was “inactive”.
The result for NHLLFSIPRSIRWKACVQ reads “inactive”; that for GGSCLSNPVGKYGILWWMLS, “inactive”; that for MNNCTDLYLLVNPRIRFGVM, “inactive”.
Turning to SYDGWCVTYFDV, the amyloid nucleation score entry was “inactive”.
The result for VSRFVLLWMSNCWATYGLFR reads “inactive”.
The result for LWVCNRGGTPTSVSSESRRE reads -0.187 ± 1; that for GGLDFSSLSLMWYTQSSHKV, “inactive”; that for HFEIVSVANKITYCLCQQML, 2.28 ± 0.075.
For LFCLLLHNIGKFRYMFY the value was “inactive”.
As to DYVCYLILVLEASRRNCRSS, the amyloid nucleation score entry was “inactive”.
Take MPWMVATSNM: the amyloid nucleation score result is “inactive”.
For VSFNP the value was -0.32 ± 0.6; for GGLCLLAVLWKFLMSALVIR, “inactive”; for KNSLDALFYVTALFCTLSGD, -0.122 ± 0.38.
The result for CRYQCRQLKVIVCSGDWNLV reads “inactive”; that for ASCSGIC, -0.956 ± 2.4; that for AIFTFVPLSPTRTHGWDHCR, “inactive”.
With YTKATHSVMFGFTVIVVF, the amyloid nucleation score result was “inactive”.
Turning to VIVVREYVVWKNISMIVDYL, the amyloid nucleation score is -0.019 ± 0.24.
The result for LIADHIVRSSSLMSWFSPSR reads “inactive”.
The result for ATSCILMMDLSRYYVGLYHR reads 0.88 ± 0.094; that for LYDCSINKQG, “inactive”.
The result for RYYDLVSGSWWIYFG reads “inactive”.
With KRDTSWLPVCNSGLSQCRKR, the amyloid nucleation score result was “inactive”.
Take HLFLKHMLLTYCKPCGW: the amyloid nucleation score result was “inactive”.
The result for SSFDSAIEA reads “inactive”; that for LFLRDNF, “inactive”; that for CVNLYVELKFNHFDFVS, 2.04 ± 0.09.
For IGIEFLNLKHLPSYLLSVRF the value was “inactive”; for EMCINSVMMDATMSKH, “inactive”.
The result for YRTDDERCDMTTVLYSYMEY reads “inactive”.
Regarding YAWGYSSWETRN, the amyloid nucleation score entry was “inactive”.
The result for VYDVSQVGLSRSSFFGAVQA reads “inactive”; that for KLNILKTGMLCYVPHLIAHI, “inactive”.
For FWHILLEVRLAVWSQMRDMG the value was “inactive”.
For SSFGTQLYWNMSKCRFTRGT, the amyloid nucleation score came to 1.16 ± 0.16.
As to NFPYLAVFLRGFSFSVIDC, the amyloid nucleation score entry is “inactive”.
For YLRGY the value was “inactive”.
For NNTDCYESNVVFFSTAIHLS the value was 1.6 ± 0.12; for IDVSCMQNNILRRIGFHV, “inactive”; for QLQSYRQGTFGDQYSPSVHS, “inactive”.
The result for AMVTVELSDNYFWNLHTVAS reads “inactive”.
Consider SNQLNAN, for which the amyloid nucleation score entry was “inactive”.
Turning to GATFVRILSRLIRLSFI, the amyloid nucleation score result is “inactive”.
On to NIGRNMLRCVNLTT, for which the amyloid nucleation score entry is “inactive”.
As for CGWMEGLCQLYENKEMKHWH, the amyloid nucleation score was -0.261 ± 0.88.
Take CKARTSASSNQHRESVYGLE: the amyloid nucleation score result was “inactive”.
For ALSMLTG the value was “inactive”; for NILFWSF, “inactive”.
Regarding LCLFRTRVIGVS, the amyloid nucleation score entry is “inactive”.
The result for KFHIFFCSFCVPPE reads 3.17 ± 0.082; that for FITVNRQNGK, “inactive”; that for TVRFLVHYITAKGKSVGITK, “inactive”.
For MTRKYQNR the value was “inactive”.
For TRLDGHTYMFTL the value was “inactive”; for YRSFSSKDVSKL, “inactive”; for YTMVWFLSSYSNY, “inactive”.
With RSRKLCNPIMILLQVFGNYG, the amyloid nucleation score is 1.43 ± 0.07.
For ILHKGNS the value was “inactive”; for PQHADVAFVT, “inactive”.
For SYGPRPYTHHSPHAAGMTLE the value was “inactive”.
Regarding SISMQVNHPEY, the amyloid nucleation score result is “inactive”.
The result for VKCQRRH reads “inactive”; that for PCQDWARYAPGLPLPMGLAL, -0.293 ± 0.89.
In the case of ISDLWLFATCSLK, the amyloid nucleation score result was “inactive”.
For NFPNPVVSNLRAYFMD the value was -0.371 ± 0.96; for CLGLHQILM, “inactive”; for IPLLQCNIERYISLFVLVVG, “inactive”.
The result for VGYLCFLFQTDSFI reads “inactive”; that for YWLGA, “inactive”; that for LVVRNVEVPIHR, “inactive”.
The result for CWSSIYSNDQDFYWKSPLLS reads “inactive”.
Regarding MCAHVNVMRNSFYRRNAPNY, the amyloid nucleation score is 0.603 ± 0.16.
The result for SGIVLESLLISRFFKGFHRD reads 0.926 ± 0.25; that for RSDGRCEYKSWCNVQLKVE, “inactive”.
For ANMKINVVLLNDCGWGR the value was 1.5 ± 0.12; for SWQNWGRGGCSGLFVSRWVT, “inactive”; for YMSFIYGSKR, 1.78 ± 0.07.
For CHNKKWVDFNVCFYNMLSFY the value was “inactive”.
In the case of NPFMW, the amyloid nucleation score entry was “inactive”.
For the substance SSSVTVYRFKGSTSSLGTNY, the amyloid nucleation score result is “inactive”.
For the substance GTFVFTYMWFNIYRQNDFRN, the amyloid nucleation score entry was “inactive”.
As to RAFMVSVSHCRMCWIWC, the amyloid nucleation score result is “inactive”.
Consider TMIFYYRYRLVCDGLFFCGT, for which the amyloid nucleation score was 0.034 ± 0.48.
For NRDNAEQYYRPTVTVCSEGW the value was “inactive”.
As for LLVCSWC, the amyloid nucleation score is 2.1 ± 0.093.
The result for LGTGSLNHST reads “inactive”; that for KDLKMYRGF, “inactive”; that for FIWIT, “inactive”.
For TSNRGDWVHFTVYSFYESTM the value was “inactive”; for RSVKVYLRCSLSNCVILLGT, 2.58 ± 0.049.
For SFSSRRHYNLLPFRWFFRRN the value was “inactive”.
On to PFLYGRYFVAISNS, for which the amyloid nucleation score result was “inactive”.
The result for PMMWSVVVYNTNIYGLVCAM reads 1.26 ± 0.08; that for IQDFSCFQRSEAVTIQGRS, “inactive”; that for IAPYGRGWKDYLIDSEHVRT, “inactive”.
Take CVNVLQPGVTHSRMANLCSG: the amyloid nucleation score entry was “inactive”.
VYTRSGHV: the amyloid nucleation score was -0.112 ± 1.3.
Take LLLSEREGIYVVWVWCRWPV: the amyloid nucleation score result is “inactive”.
For the substance IVECFYTL, the amyloid nucleation score entry is “inactive”.
The result for MGTVVTMSMRLSNSVWGVGH reads 1.28 ± 0.14; that for TICPTFPVGGMNISNGSYTM, “inactive”.
The result for HWFLYLPFSPYCIPRIPDYL reads “inactive”.

These data come from the supplement of paper PMC12042874.
